Assay results published in patent US20140370037A1 (published 2014).
Positions count from the first letter of the chain named.

T1: human DLL3 antigen (human, UniProt Q9NYJ7 27-492, limits assumed)
T1 construct: also called immobilized human DLL3; recombinant human DLL3
T1 sequence (looked up): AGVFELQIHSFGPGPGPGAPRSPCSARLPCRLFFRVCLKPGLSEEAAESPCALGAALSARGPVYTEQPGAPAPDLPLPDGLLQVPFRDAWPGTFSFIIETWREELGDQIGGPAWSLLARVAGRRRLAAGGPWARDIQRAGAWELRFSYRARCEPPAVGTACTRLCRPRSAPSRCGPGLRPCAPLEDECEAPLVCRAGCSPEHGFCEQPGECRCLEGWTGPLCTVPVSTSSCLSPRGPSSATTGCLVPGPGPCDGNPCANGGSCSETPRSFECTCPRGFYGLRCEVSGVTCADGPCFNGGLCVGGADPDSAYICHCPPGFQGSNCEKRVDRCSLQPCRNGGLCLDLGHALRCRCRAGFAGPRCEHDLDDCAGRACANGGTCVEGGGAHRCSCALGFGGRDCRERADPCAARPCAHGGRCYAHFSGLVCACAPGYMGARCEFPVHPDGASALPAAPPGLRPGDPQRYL

B1: SC16.61 (antibody, V domains shown)
VH: EVLLQRSGPDLVKPGASVTIPCKASGYTFTDYNMDWVKQSHGKSLEWIGNINTYNGGTIYNQKFKGKATLTVDKPSSTAYMELRSLTSEDTAVYYCARRLRYGGHYFDYWGQGTALTVSS
VL: DIVMTQSTSSLAMSVGQKVTMSCKSSQSLLNSSNQKNYLAWYQQEPGQSPKLLVSFASTRESGVPDRFTGSGSGTDFTLTISGVQAEDLAVYYCQQHYSIPLTFGAGTKLELK
notes: murine mAb
B2: SC16.58 (antibody, V domains shown)
VH: DVQLVESGGGLVQPGGSRKLSCAASGFTFSSFGMHWVRQAPEKGLEWVAYISSGSSNIYYADTVKGRFTISRDNPKNTLFLQMTSLRSEDTAMYYCARGYYGNYDAMDYWGQGTSVTVSS
VL: DIQMTQSPASLSSSVGETVTITCRASENIYSYLAWYQQKQGKSPQLLVYNAKTLAEGVPSRFSGSGSGTQFSLKINSLQPEDFGTYYCQHHYDSPLTFGAGTKLELR
notes: murine mAb
B3: SC16.56 (antibody, V domains shown)
VH: QIQLVQSGPELKKPGETVKISCKASGYTFTNYGMNWVKQAPGKGLKWMAWINTYTGEPTYADDFKGRFAFSLETSASTASLQIINLKNEDTATYFCARIGDSSPSDYWGQGTTLTVSS
VL: SIVMTQTPKFLLVSAGDRVTITCKASQSVSNDVVWYQQKPGQSPKLLIYYASNRYTGVPDRFAGSGYGTDFSFTISTVQAEDLAVYFCQQDYTSPWTFGGGTKLEIR
notes: murine mAb; also called anti-human/mouse DLL3 (SC16.56)
B4: SC16.63 (antibody, V domains shown)
VH: QVQLQQSGTELLRPGASVKISCKATGYTFSSYWMEWVKQRPGHGLEWIGEILPGSGTTQYNEKFKGKATFTADTSSNTAYMHLSSLTSEDSAVYYCARGTNSLWGQGTLVTVSA
VL: QIVLTQSPAIMSASPGEKVTMTCSASSSVSYMYWYQQKSGTSPKRWIYDTSKLASGVPARFSGSGSGTSYSLTISSMEAEDAATYYCQQWSSNPYTFGGGTKLEIK
notes: murine mAb
B5: SC16.57 (antibody, V domains shown)
VH: EVKLVESGGDLVKPGGSLKLSCAASGFAFSSYDMSWVRQTPEKRLEWVATISSGGSYTYYPDSVKGRFTISRDNVRDTLYLQMSSLRSEDTALYYCARQAIGTYFDYWGQGTTLTVSS
VL: DIVMTQSHKFMSISVGDRVSITCKASQDVSIFVAWYQQKPGQSPKLLIYSASYRYTGVPDRFTGSGSGTDFIFTISSVQAEDLAVYYCQQHYGTPFTFGSGTKLKIR
notes: murine mAb
B6: SC16.52 (antibody, V domains shown)
VH: QVQLKESGPGLVAPSQSLSITCAVSGFSLTSFAIHWFRKPPGKGLEWLGVIWTGGTTNYNSALMSRLSISKDNSKSQVFLKMNSLQTDDTAMYYCARDDYDNNYAMDYWGQGTSVTVSS
VL: DIQMIQSPSSMFASLGDRVSLSCRASQGIRGTLDWYQQKPNGTIKLLIYSTSNLNSGVPSRFSGSGSGSDYSLTISSLESEDFADYYCLQRNAYPLTFGAGTKLELK
notes: murine mAb
B7: SC16.55 (antibody, V domains shown)
VH: EVQLVESGGGLVQPKGSLKLSCAVSAFTFTTYAMNWVRQAPGKGLEWVARIRNKSNNYATYYADSVKDRFTISRDDSQSMLYLQMNNLKIEDTAMYYCVFYYDYVYWGQGTLVTVSA
VL: DIKMTQSPSSMYASLGERVTITCKASQDINSYLNWFQQKPGKSPKTLIYRANRLVDGVPSRFSGSGSGQDYSLTISSLEYEDMGIYYCLQYDEFPYTFGGGTKLEIKR
notes: murine mAb
B8: SC16.62 (antibody, V domains shown)
VH: EVMLVESGGDLVKPGGSLKLSCAASGFTFSSYAMSWVRQTPEKRLEWVAYISGGGDHIYYPDSVRGRFTISRDNAKDTLYLQMSSLRSEDTALYDCARVRDWYFDVWGAGTTVTVSS
VL: B7 VL with Y32F, N34S, Q38R, S63T, D70E, Y71F, M83L
notes: murine mAb

Molecular target: T1, human DLL3 antigen
Experiment: ELISA or flow cytometry screen

Binding result, binds:
B1
B2
B3
B4
B5
B6
B7
B8
